These results are taken from PMC2944003.

The assay deals with human complement receptor 3 (CR3) on CR3-transfected CHO cells (CHO/CR3) (human) (UniProt P11215). Nature of the assay: flow cytometry on cells. In general terms: In flow cytometry, cells or beads pass a laser one at a time.

fH SCRs 18–20 fused to the Fc fragment of murine IgG2a (Fc fusion), sequence (P08603 19-1231): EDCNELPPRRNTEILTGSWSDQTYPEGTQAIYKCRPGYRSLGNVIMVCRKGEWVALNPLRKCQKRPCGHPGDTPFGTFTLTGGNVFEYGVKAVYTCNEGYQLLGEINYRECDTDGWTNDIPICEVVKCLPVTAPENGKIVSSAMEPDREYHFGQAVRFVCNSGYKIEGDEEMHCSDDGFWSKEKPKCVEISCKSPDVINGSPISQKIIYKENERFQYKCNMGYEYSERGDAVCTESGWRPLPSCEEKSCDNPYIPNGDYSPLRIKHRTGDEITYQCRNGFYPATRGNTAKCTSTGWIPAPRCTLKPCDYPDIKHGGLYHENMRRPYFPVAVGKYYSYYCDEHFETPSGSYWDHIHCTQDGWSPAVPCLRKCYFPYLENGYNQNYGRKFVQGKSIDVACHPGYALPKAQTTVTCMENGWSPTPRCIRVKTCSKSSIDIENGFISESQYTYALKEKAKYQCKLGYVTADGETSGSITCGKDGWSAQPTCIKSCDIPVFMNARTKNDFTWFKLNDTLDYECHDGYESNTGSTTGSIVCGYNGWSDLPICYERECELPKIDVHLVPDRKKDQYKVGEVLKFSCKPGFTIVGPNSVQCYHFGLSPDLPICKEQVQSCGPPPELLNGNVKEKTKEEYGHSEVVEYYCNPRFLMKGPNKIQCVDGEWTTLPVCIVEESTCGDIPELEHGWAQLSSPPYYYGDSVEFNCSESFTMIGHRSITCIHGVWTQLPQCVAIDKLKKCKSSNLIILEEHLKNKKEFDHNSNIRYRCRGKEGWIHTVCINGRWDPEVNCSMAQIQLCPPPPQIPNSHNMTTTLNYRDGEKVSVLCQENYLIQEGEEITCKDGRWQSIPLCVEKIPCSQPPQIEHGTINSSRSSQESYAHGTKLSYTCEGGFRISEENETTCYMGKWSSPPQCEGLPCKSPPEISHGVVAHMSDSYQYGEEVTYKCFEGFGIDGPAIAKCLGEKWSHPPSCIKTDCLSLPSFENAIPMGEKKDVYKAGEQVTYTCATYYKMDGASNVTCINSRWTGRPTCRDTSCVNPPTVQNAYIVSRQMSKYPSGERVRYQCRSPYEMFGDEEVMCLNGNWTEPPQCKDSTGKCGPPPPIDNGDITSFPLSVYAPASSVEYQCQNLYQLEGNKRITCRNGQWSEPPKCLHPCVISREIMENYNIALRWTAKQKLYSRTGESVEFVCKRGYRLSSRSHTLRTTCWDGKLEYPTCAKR
fH SCRs 6–10 fused to the Fc fragment of murine IgG2a (Fc fusion), sequence (P08603 19-1231): as above
fH SCRs 16–20 fused to the Fc fragment of murine IgG2a (Fc fusion), sequence (P08603 19-1231): as above

The substance “fH SCRs 18–20 fused to the Fc fragment of murine IgG2a (Fc fusion)” yielded a fold increase in fluorescence over control levels of 30 fold.

The substance “fH SCRs 6–10 fused to the Fc fragment of murine IgG2a (Fc fusion)” returned a fold increase in fluorescence over control levels of 3 fold.

As to “fH SCRs 16–20 fused to the Fc fragment of murine IgG2a (Fc fusion)”, the fold increase in fluorescence over control levels came to 15 fold.
